B1: EHEE_rd4_0086 (parent)
chain: EIHIRTNGEEQARKVYKMLAKRNYDVKIEQHNGQWVVTAS

The data set covers variants of B1. Description: folding stability dG (cDNA display proteolysis); higher = more stable. Conditions: PBS, room temperature.
As for EIHIRTNGEEQARKVYKMLAKRNYDVSIEQHNGQWVVTAS, the “folding stability dG” value was found to be 1.5 kcal/mol.
As for EIHIRTNGEEQARKVYKMLAKRNYDVNIEQHNGQWVVTAS, the “folding stability dG” value was determined as 1.16 kcal/mol.
The figure for EIHIRTNGEEQARKVYKMLAKRNYDVIIEQHNGQWVVTAS is 1.45 kcal/mol.
EIHIRTNGEEQARKVYKMLAKRNYDVYIEQHNGQWVVTAS: the “folding stability dG” value is 1.45 kcal/mol.
The figure for EIHIRTNGEEQARKVYKMLAKRNYNVKIEQHNGQWVVTAS is 2.27 kcal/mol; for EIHIRTNGEEQARKVYKMLAKRNYVVKIEQHNGQWVVTAS it is 2.31 kcal/mol.
EIHIRTNGEEQARKVYKMLAKRNYKVKIEQHNGQWVVTAS: the “folding stability dG” value was determined as 2.36 kcal/mol.
The figure for EIHIRTNGEEQARKVYKMLAKRNYGVKIEQHNGQWVVTAS is 1.22 kcal/mol; for EIHIRTNGEEQARKVYKMLAKRNYMVKIEQHNGQWVVTAS it is 2.21 kcal/mol.
Consider EIHIRTNGEEQARKVYKMLAKRNYTVKIEQHNGQWVVTAS, for which the “folding stability dG” value stood at 2.25 kcal/mol.
With EIHIRTNGEEQARKVYKMLAKRNYPVKIEQHNGQWVVTAS, the “folding stability dG” value came out at 1.08 kcal/mol.
The figure for EIHIRTNGEEQARKVYKMLAKRNYQVKIEQHNGQWVVTAS is 2.23 kcal/mol; for EIHIRTNGEEQARKVYKMLAKRNYIVKIEQHNGQWVVTAS it is 2.34 kcal/mol; for EIHIRTNGEEQARKVYKMLAKRNYLVKIEQHNGQWVVTAS it is 2.21 kcal/mol.
As to EIHIRTNGEEQARKVYKMLAKRNYRVKIEQHNGQWVVTAS, the “folding stability dG” value amounted to 2.25 kcal/mol.
For EIHIRTNGEEQARKVYKMLAKRNYHVKIEQHNGQWVVTAS, the “folding stability dG” value was found to be 2.15 kcal/mol.
With EIHIRTNGEEQARKVYKMLAKRNYSVKIEQHNGQWVVTAS the figure was 1.99 kcal/mol.
For EIHIRTNGEEQARKVYKMLAKRNYEVKIEQHNGQWVVTAS, the “folding stability dG” value is 1.91 kcal/mol.
The figure for EIHIRTNGEEQARKVYKMLAKRNYYVKIEQHNGQWVVTAS is 2.09 kcal/mol.
With EIHIRTNGEEQARKVYKMLAKRNYAVKIEQHNGQWVVTAS the figure was 1.96 kcal/mol; with EIHIRTNGEEQARKVYKMLAKRNYFVKIEQHNGQWVVTAS, 2.14 kcal/mol; with EIHIRTNGEEQARKVYKMLAKRNYWVKIEQHNGQWVVTAS, 1.89 kcal/mol.
On to EIHIRTNGEEQARKVYKMLAKRNYDYKIEQHNGQWVVTAS, for which the “folding stability dG” value is -0.299 kcal/mol.
The figure for EIHIRTNGEEQARKVYKMLAKRNYDMKIEQHNGQWVVTAS is 0.338 kcal/mol; for EIHIRTNGEEQARKVYKMLAKRNYDWKIEQHNGQWVVTAS it is 0.204 kcal/mol; for EIHIRTNGEEQARKVYKMLAKRNYDIKIEQHNGQWVVTAS it is 1.09 kcal/mol.
The figure for EIHIRTNGEEQARKVYKMLAKRNYDFKIEQHNGQWVVTAS is -0.182 kcal/mol.
As to EIHIRTNGEEQARKVYKMLAKRNYDAKIEQHNGQWVVTAS, the “folding stability dG” value stood at 1.1 kcal/mol.
As to EIHIRTNGEEQARKVYKMLAKRNYDPKIEQHNGQWVVTAS, the “folding stability dG” value came out at 1.02 kcal/mol.
With EIHIRTNGEEQARKVYKMLAKRNYDTKIEQHNGQWVVTAS the figure was 0.533 kcal/mol; with EIHIRTNGEEQARKVYKMLAKRNYDGKIEQHNGQWVVTAS, -0.027 kcal/mol; with EIHIRTNGEEQARKVYKMLAKRNYDLKIEQHNGQWVVTAS, 0.829 kcal/mol.
The figure for EIHIRTNGEEQARKVYKMLAKRNYDRKIEQHNGQWVVTAS is -0.177 kcal/mol; for EIHIRTNGEEQARKVYKMLAKRNYDSKIEQHNGQWVVTAS it is -0.013 kcal/mol.
With EIHIRTNGEEQARKVYKMLAKRNYDVKIQQHNGQWVVTAS the figure was 1.82 kcal/mol.
EIHIRTNGEEQARKVYKMLAKRNYDVKIFQHNGQWVVTAS: the “folding stability dG” value came to 2.44 kcal/mol.
On to EIHIRTNGEEQARKVYKMLAKRNYDVKINQHNGQWVVTAS, for which the “folding stability dG” value worked out at 1.57 kcal/mol.
Take EIHIRTNGEEQARKVYKMLAKRNYDVKIKQHNGQWVVTAS: the “folding stability dG” value came out at 1.6 kcal/mol.
For EIHIRTNGEEQARKVYKMLAKRNYDVKIHQHNGQWVVTAS, the “folding stability dG” value amounted to 1.78 kcal/mol.
The figure for EIHIRTNGEEQARKVYKMLAKRNYDVKIDQHNGQWVVTAS is 1.26 kcal/mol; for EIHIRTNGEEQARKVYKMLAKRNYDVKIIQHNGQWVVTAS it is 1.97 kcal/mol.
For the variant EIHIRTNGEEQARKVYKMLAKRNYDVKILQHNGQWVVTAS, the “folding stability dG” value was 1.75 kcal/mol.
The figure for EIHIRTNGEEQARKVYKMLAKRNYDVKIGQHNGQWVVTAS is 1.48 kcal/mol.
The figure for EIHIRTNGEEQARKVYKMLAKRNYDVKIMQHNGQWVVTAS is 1.93 kcal/mol.
The figure for EIHIRTNGEEQARKVYKMLAKRNYDVKIAQHNGQWVVTAS is 1.8 kcal/mol; for EIHIRTNGEEQARKVYKMLAKRNSDVKIEQHNGQWVVTAS it is 0.914 kcal/mol; for EIHIRTNGEEQARKVYKMLAKRNADVKIEQHNGQWVVTAS it is 1.08 kcal/mol.
With EIHIRTNGEEQARKVYKMLAKRNGDVKIEQHNGQWVVTAS, the “folding stability dG” value was 0.656 kcal/mol.
The figure for EIHIRTNGEEQARKVYKMLAKRNKDVKIEQHNGQWVVTAS is 1.25 kcal/mol; for EIHIRTNGEEQARKVYKMLAKRNNDVKIEQHNGQWVVTAS it is 0.737 kcal/mol; for EIHIRTNGEEQARKVYKMLAKRNMDVKIEQHNGQWVVTAS it is 1.71 kcal/mol.
The figure for EIHIRTNGEEQARKVYKMLAKRNHDVKIEQHNGQWVVTAS is 1.18 kcal/mol; for EIHIRTNGEEQARKVYKMLAKRNFDVKIEQHNGQWVVTAS it is 1.93 kcal/mol; for EIHIRTNGEEQARKVYKMLAKRNDDVKIEQHNGQWVVTAS it is 0.514 kcal/mol.
The figure for EIHIRTNGEEQARKVYKMLAKRNIDVKIEQHNGQWVVTAS is 1.42 kcal/mol; for EIHIRTNGEEQARKVYKMLAKRNEDVKIEQHNGQWVVTAS it is 0.458 kcal/mol.
Turning to EIHIRTNGEEQARKVYKMLAKRNTDVKIEQHNGQWVVTAS, the “folding stability dG” value came out at 0.886 kcal/mol.
The figure for EIHIRTNGEEQARKVYKMLAKRNLDVKIEQHNGQWVVTAS is 1.69 kcal/mol; for EIHIRTNGEEQARKVYKMLAKRNQDVKIEQHNGQWVVTAS it is 0.902 kcal/mol; for EIHIRTNGEEQARKVYKMLAKRNRDVKIEQHNGQWVVTAS it is 1.3 kcal/mol.
EIHIRTNGEEQARKVYKMLAKRNPDVKIEQHNGQWVVTAS: the “folding stability dG” value came to 0.856 kcal/mol.
Turning to EIHIRTNGEEQARKVYKMLAKRNWDVKIEQHNGQWVVTAS, the “folding stability dG” value was determined as 2 kcal/mol.
The figure for EIHIRTNGEEQARKVYKMLAKRNVDVKIEQHNGQWVVTAS is 1.29 kcal/mol.

Values taken from the MegaScale stability set (Tsuboyama et al. 2023).
